Assay results published in patent publication US20230257470A1 (published 2023).
Positions count from the first letter of the chain named. Numbers in names are those of the source. Blank lines part the entries; values can stand above or below the binder they belong to.

Experiments:
[1] = target: T1, human FcγRIIIa(F) (human, UniProt P08637 17-208, limits assumed); assay: SPR, antibody captured, FcγR as analyte, capture-corrected binding amount
T1 construct: the assay used allotype F; also called FcgRIIIaF; FcγRIIIa allotype F158
T1 sequence (P08637 other isoform, or with tags, fused parts or gaps limits assumed): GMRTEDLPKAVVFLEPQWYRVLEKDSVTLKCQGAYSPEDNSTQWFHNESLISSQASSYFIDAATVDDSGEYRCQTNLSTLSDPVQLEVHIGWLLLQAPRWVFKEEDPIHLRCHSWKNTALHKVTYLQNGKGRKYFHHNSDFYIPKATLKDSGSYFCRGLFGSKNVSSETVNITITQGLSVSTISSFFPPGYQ
Protocol: (§1) Interaction between each modified antibody and Fcγ receptor prepared in the manner described above was analyzed using the BIACORE™ T100 surface plasmon resonance system (GE Healthcare), BIACORE™ T200 surface plasmon resonance system (GE Healthcare), BIACORE™ A100 surface plasmon resonance system or BIACORE™ 4000 surface plasmon resonance system. HBS-EP+(GE Healthcare) was used for the running buffer, and measurements were carried out at 25° C. The chips used were chips in which antigen peptides, Protein A (Thermo Scientific), Protein A/G (Thermo Scientific) or Protein L (ACTIGEN® protein (Alltech or BioVision) were immobilized on the Series S Sensor Chip CM5 (GE Healthcare) or Series S Sensor Chip CM4 (GE Healthcare) by amine coupling, or chips in which preliminarily biotinylated antigen peptides were allowed to interact and then immobilized on the Series S Sensor Chip SA (certified) (GE Healthcare). The target antibodies were captured on these sensor chips, Fcγ receptor diluted with the running buffer was allowed to interact, followed by measurement of the amount of bound antibody. The amounts bound were compared between antibodies. However, since the amount of Fcγ receptor bound depends on the amount of captured antibody, the values used for comparison were first corrected by dividing the amount of Fcγ receptor bound by the captured amount of each antibody. Through reaction with 10 mM glycine-HCl at pH 1.5, the sensor chips were regenerated by washing off antibody captured on the sensor chips and used repeatedly.
(§2) Binding strength was evaluated according to the following method based on the results of analyzing the interaction with each FcγR. […] That value was then further multiplied by 100, and the resulting value was used as an indicator of relative binding activity to each FcγR.

[2] = target: T2, human FcγRIIb (human, UniProt P31994 43-217, limits assumed); assay: as above
T2 construct: also called FcgRIIb; FcγIIB
T2 sequence: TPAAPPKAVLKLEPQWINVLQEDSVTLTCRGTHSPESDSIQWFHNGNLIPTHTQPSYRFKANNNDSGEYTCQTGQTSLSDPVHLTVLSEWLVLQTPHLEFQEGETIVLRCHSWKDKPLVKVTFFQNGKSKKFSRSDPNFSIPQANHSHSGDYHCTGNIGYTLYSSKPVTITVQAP
Protocol: as §1, §2

[3] = target: T3, human FcγRIIa(H) (human, UniProt P12318 36-217); assay: SPR (Biacore), captured antibody, FcγR analyte
T3 construct: also called FcgRIIaH; FcγRIIa type H
T3 sequence: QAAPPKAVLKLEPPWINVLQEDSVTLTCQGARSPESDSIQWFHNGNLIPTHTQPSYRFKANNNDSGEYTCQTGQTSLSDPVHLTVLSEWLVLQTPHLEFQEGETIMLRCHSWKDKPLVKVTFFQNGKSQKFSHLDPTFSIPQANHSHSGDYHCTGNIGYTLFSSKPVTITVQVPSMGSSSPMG
Protocol: Interaction between each modified antibody and Fcγ receptor prepared in the manner described above was analyzed using the BIACORE™ T100 surface plasmon resonance system (GE Healthcare), BIACORE™ T200 surface plasmon resonance system (GE Healthcare), BIACORE™ A100 surface plasmon resonance system or BIACORE™ 4000 surface plasmon resonance system. HBS-EP+(GE Healthcare) was used for the running buffer, and measurements were carried out at 25° C. The chips used were chips in which antigen peptides, Protein A (Thermo Scientific), Protein A/G (Thermo Scientific) or Protein L (ACTIGEN® protein (Alltech or BioVision) were immobilized on the Series S Sensor Chip CM5 (GE Healthcare) or Series S Sensor Chip CM4 (GE Healthcare) by amine coupling, or chips in which preliminarily biotinylated antigen peptides were allowed to interact and then immobilized on the Series S Sensor Chip SA (certified) (GE Healthcare). The target antibodies were captured on these sensor chips, Fcγ receptor diluted with the running buffer was allowed to interact, followed by measurement of the amount of bound antibody. The amounts bound were compared between antibodies. […]
Binding strength was evaluated according to the following method based on the results of analyzing the interaction with each FcγR. […]

[4] = target: T4, human FcγRIIa(H) (human, UniProt P12318 36-217); assay: SPR, antibody captured, FcγR as analyte, capture-corrected binding amount
T4 construct: also called FcgRIIaH; FcγRIIa type H
T4 sequence: T3 sequence
Protocol: as §1, §2

[5] = target: T5, human FcγRIIa(R) (human, UniProt P12318 36-217); assay: SPR, captured antibody, FcγR analyte; bound amount per captured antibody
T5 construct: also called FcgRIIaR; FcγRIIa type R
T5 chain: T3 sequence with H133R
Protocol: as §1, §2

[6] = target: T6, human FcγRIIa(R) (allotype R131) (human, UniProt P12318 36-217); assay: SPR (Biacore T100), antibody captured by Protein L, FcγR as analyte, pH 7.4, 25 C
T6 construct: Soluble analyte in SPR; also called hFcgRIIa(R); FcgRIIaR
T6 chain: T3 sequence with H133R
Protocol: (§3) Interaction of these antibodies with FcγRIIa(R) and FcγRIIb was analyzed using the BIACORE™ T100 surface plasmon resonance system (GE Healthcare). Measurements were carried out at 25° C. using a buffer consisting of 20 mM N-(2-acetamido)-2-aminoethanesulfonic acid (ACES), 150 mM NaCl and 0.05% polysorbate 20 (Tween 20®) (pH 7.4) for the running buffer. The Series S Sensor Chip CM4 (GE Healthcare) was used after immobilizing Protein L by amine coupling. […] Antibody captured on the chip was washed by reacting with 10 mM glycine-HCl (pH 1.5) following measurement, and the chip regenerated in this manner was used repeatedly.
(§4) Measurement results were analyzed using the BIACORE™ Evaluation Software. Antibody was captured by Protein L, and the amount of change in a sensorgram before and after the antibody was captured was defined as X1. […]

[7] = target: T7, human FcγRIIb (human, UniProt P31994 43-217, limits assumed); assay: as above
T7 construct: Soluble analyte in SPR; also called hFcgRIIb; FcgRIIb
T7 sequence: T2 sequence
Protocol: as §3, §4

[8] = target: T8, human FcγRIIIa(F) (human, UniProt P08637 17-208, limits assumed); assay: SPR (Biacore), antibody captured on Protein L, human FcgR injected, pH 7.4, 25 C; normalised to captured amount x 1500
T8 construct: also called hFcgRIIIa(F); allotype F158
T8 sequence (P08637 other isoform, or with tags, fused parts or gaps limits assumed): as the sequence (P08637 other isoform, or with tags, fused parts or gaps limits assumed) above
Protocol: Binding activity between the antibodies and human FcγRIa, FcγRIIa(H), FcγRIIa(R), FcγRIIb and FcγRIIIa(F) (hereinafter referred to as human FcγRs) was evaluated using the BIACORE™ T100 or T200 surface plasmon resonance system (GE Healthcare). The antibodies being tested were captured by Protein L (ACTIGEN® protein (Alltech)) that was immobilized in suitable amounts on the CM4 Sensor Chip (GE Healthcare) by amine coupling. Next, the diluted human FcγRs and a running buffer used as a blank were injected to allow interaction with the antibodies captured on the sensor chip. A buffer consisting of 20 mmol/L N-(2-acetamido)-2-aminoethanesulfonic acid (ACES), 150 mmol/L NaCl and 0.05% (w/v) polysorbate 20 (Tween 20®) (pH 7.4) was used for the running buffer, and this buffer was also used to dilute the human FcγRs. 10 mmol/L glycine-HCl (pH 1.5) was used to regenerate the sensor chip. All measurements were carried out at 25° C.
Binding activity to human FcγRs can be represented by the relative binding activity to human FcγRs. Antibody was captured by Protein L, and the amount of change in a sensorgram before and after the antibody was captured was defined as X1. […]

[9] = target: T9, human FcγRIIb (human, UniProt P31994 43-217, limits assumed); assay: ratio of SPR KD values: KD for FcγRIIaH divided by KD for FcγRIIb
T9 construct: Whole entry (AAI46679.1); also called FcγIIB; FcgRIIb
T9 sequence: T2 sequence
Protocol: (§5) Next, interaction between these antibodies and FcγR was analyzed kinetically using the BIACORE™ T100 (GE Healthcare). The interaction was measured at a temperature of 25° C. using HBS-EP+ (GE Healthcare) for the running buffer. The Series S Sensor Chip CM5 (GE Healthcare) was used after immobilizing Protein A by amine coupling. […] Antibody captured on the chip was washed by allowing 10 mM glycine-HCl (pH 1.5) to react following measurement. The chip regenerated in this manner was used repeatedly. The dissociation constant KD (mol/L) was calculated from the association rate constant ka (L/mol/s) and dissociation rate constant kd (1/s) as calculated by global-fitting the measurement results with a 1:1 Langmuir binding model using the BIACORE™ Evaluation Software.
Furthermore, KD(IIaR)/KD(IIb) and KD(IIaH)/KD(IIb) in the table respectively represent the value obtained by dividing the KD value of each variant for FcγRIIaR by the KD value of each variant for FcγRIIb, and the value obtained by dividing the KD value of each variant for FcγRIIaH by the KD value of each variant for FcγRIIb.

[10] = target: T10, human FcγRIIa type R (human, UniProt P12318 36-217); assay: SPR (Biacore), antibody captured, FcγR as analyte, method of Example 14
T10 construct: also called FcγRIIaR; FcγRIIa(R)
T10 chain: T3 sequence with H133R
Protocol: as §5
(§6) Furthermore, KD(IIaR)/KD(IIb) and KD(IIaH)/KD(IIb) in the table respectively show the value obtained by dividing the KD value of each variant for FcγRIIaR by the KD value of each variant for FcγRIIb, and the value obtained by dividing the KD value of each variant for FcγRIIaH by the KD value of each variant for FcγRIIb.

[11] = target: T11, human FcγRIIb (human, UniProt P31994 43-217); assay: ratio of SPR KD values of the same variant: KD for FcγRIIaR / KD for FcγRIIb
T11 construct: also called FcγRIIb extracellular region; FcγIIB
T11 sequence: T2 sequence
Protocol: as §5, §6

[12] = target: T11, human FcγRIIb; assay: SPR (Biacore), antibody captured, FcγR as analyte, method of Example 14
Protocol: as §5, §6

[13] = target: T12, human FcγRIa (human, UniProt P12314 16-292, limits assumed); assay: as above
T12 construct: also called CD64
T12 sequence (P12314 16-292 limits assumed): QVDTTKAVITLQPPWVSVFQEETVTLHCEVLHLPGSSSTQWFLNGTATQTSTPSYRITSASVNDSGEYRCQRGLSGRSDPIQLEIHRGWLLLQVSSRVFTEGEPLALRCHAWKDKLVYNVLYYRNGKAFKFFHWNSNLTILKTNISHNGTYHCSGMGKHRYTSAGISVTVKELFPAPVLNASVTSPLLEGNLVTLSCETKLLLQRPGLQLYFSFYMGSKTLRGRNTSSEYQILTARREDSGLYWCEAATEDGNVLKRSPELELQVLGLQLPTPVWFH
Protocol: as §5, §6

[14] = target: T11, human FcγRIIb; assay: ratio of SPR KD values for FcγRIIb; reference: parent polypeptide IL6R-F11/IL6R-L
Protocol: as §5, §6

[15] = target: T11, human FcγRIIb; assay: ratio of SPR KD values of the same variant: KD for FcγRIIaH / KD for FcγRIIb
Protocol: as §5, §6

[16] = target: T13, human FcγRIIb (human, UniProt P31994 43-217, limits assumed); assay: SPR (Biacore), antibody captured on chip, FcgR injected, HBS-EP+, 25 C; bound amount corrected by captured amount; reference itself
T13 construct: also called hFcgRIIb
T13 sequence: T2 sequence

[17] = target: T8, human FcγRIIIa(F); assay: as above
[18] = target: T14, human FcγRIIa(R) (human, UniProt P12318 36-217); assay: as above
T14 construct: also called hFcgRIIa(R); FcγRIIa type R
T14 chain: T3 sequence with H133R

[19] = target: T15, human FcγRIIa(H) (human, UniProt P12318 36-217); assay: as above
T15 construct: also called hFcgRIIa(H); FcγRIIa type H
T15 sequence: T3 sequence

[20] = target: T16, human FcγRIa (human, UniProt P12314 16-292, limits assumed); assay: as above
T16 construct: also called hFcgRIa
T16 sequence (P12314 16-292 limits assumed): as above

B3: GpH7-B3 P329Q/GpL16-k0 (antibody, human IgG1)
heavy: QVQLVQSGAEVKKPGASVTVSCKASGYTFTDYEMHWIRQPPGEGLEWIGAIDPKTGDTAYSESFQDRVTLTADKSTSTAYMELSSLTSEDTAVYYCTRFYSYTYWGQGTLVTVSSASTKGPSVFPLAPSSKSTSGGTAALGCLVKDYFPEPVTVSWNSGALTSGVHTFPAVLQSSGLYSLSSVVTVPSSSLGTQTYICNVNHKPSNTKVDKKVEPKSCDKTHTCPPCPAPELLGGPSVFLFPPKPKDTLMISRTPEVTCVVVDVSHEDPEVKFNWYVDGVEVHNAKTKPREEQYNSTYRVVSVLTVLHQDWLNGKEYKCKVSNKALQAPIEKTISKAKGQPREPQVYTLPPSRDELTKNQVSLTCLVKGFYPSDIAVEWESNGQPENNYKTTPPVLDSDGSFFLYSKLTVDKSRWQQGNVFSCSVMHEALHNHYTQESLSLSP
light: DIVMTQSPLSLPVTPGEPASISCQASESLVHSNRNTYLHWYLQKPGQSPQLLIYKVSNRFSGVPDRFSGSGSGTDFTLKISRVEAEDVGVYYCSQNTHVPPTFGQGTKVEIE
notes: Anti-glypican-3 human IgG1 with B3 constant region (G1d with K439E); also called B3 variant; copies: 2 + 2
- relative binding activity [1]: 1 % of GpH7-B3/GpL16-k0
- relative binding activity [2]: 2 % of GpH7-B3/GpL16-k0

B4: GpH7-B3 N325Y/GpL16-k0 (antibody, human IgG1)
heavy: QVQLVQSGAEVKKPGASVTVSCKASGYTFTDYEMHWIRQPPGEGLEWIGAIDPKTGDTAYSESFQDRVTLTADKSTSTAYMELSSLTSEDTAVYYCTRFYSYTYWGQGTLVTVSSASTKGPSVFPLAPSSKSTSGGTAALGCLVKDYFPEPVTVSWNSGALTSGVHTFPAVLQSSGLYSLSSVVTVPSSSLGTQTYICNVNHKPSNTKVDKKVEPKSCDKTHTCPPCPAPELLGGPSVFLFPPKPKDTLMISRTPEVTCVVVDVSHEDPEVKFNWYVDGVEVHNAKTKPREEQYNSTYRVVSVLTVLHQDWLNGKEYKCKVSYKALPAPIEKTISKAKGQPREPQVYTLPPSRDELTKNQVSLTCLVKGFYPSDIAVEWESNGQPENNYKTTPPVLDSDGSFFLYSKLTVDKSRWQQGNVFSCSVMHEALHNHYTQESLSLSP
light: B3 light
notes: as for B3
- relative binding activity [4]: -9 % of GpH7-B3/GpL16-k0

B6: GpH7-B3 G236K/GpL16-k0 (antibody, human IgG1)
heavy: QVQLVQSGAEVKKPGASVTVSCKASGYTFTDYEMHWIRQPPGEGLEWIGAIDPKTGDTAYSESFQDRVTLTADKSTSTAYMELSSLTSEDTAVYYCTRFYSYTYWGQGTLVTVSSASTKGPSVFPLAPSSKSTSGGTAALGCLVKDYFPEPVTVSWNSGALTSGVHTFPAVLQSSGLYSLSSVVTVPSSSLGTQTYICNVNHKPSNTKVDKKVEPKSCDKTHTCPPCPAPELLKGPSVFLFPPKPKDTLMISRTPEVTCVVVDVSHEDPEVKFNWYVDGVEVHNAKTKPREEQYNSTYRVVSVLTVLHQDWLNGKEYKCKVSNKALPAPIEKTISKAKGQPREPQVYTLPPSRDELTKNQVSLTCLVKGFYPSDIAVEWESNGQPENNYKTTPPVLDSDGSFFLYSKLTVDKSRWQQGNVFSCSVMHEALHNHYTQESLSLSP
light: B3 light
notes: anti-glypican-3 IgG1; B3 constant region (G1d with K439E); also called B3 variant; copies: 2 + 2
- relative binding activity [5]: 9 % of GpH7-B3/GpL16-k0

B8: antibody containing VH3-IgG1-F652 for the heavy chain and L(WT)-CK for the light chain (antibody)
heavy: QVQLQESGPGLVKPSETLSLTCAVSGHSISHDHAWSWVRQPPGEGLEWIGFISYSGITNYNPSLQGRVTISRDNSKNTLYLQMNSLRAEDTAVYYCARSLARTTAMDYWGEGTLVTVSSASTKGPSVFPLAPSSKSTSGGTAALGCLVKDYFPEPVTVSWNSGALTSGVHTFPAVLQSSGLYSLSSVVTVPSSSLGTQTYICNVNHKPSNTKVDKKVEPKSCDKTHTCPPCPAPELLGGDSVFLFPPKPKDTLYISRTPEVTCVVVDVSHEDPEVKFNWYVDGVEVHNAKTKPREEQYNSTYRVVSVLTVLHQDWLNGKEYKCKVSNKALPAPIEKTISKAKGQPREPQVYTLPPSRDELTKNQVSLTCLVKGFYPSDIAVEWESNGQPENNYKTTPPVLDSDGSFFLYSKLTVDKSRWQQGNVFSCSVMHEALHYHYTQKSLSLSP
light: not shown
notes: VH3-IgG1-F11 with P238D (EU numbering)
- BINDING AMOUNT (RU) [6]: 9.1 RU
- BINDING AMOUNT (RU) [7]: 64 RU

B9: antibody containing VH3-IgG1-F1356 for the heavy chain and L(WT)-CK for the light chain (antibody)
heavy: B8 heavy with G238R, D240P, L330R, Y438V
light: not shown
- BINDING AMOUNT (RU) [8]: 4.09 RU

B10: IL6R-BP143/IL6R-L (antibody, human IgG1, name in EU numbering)
heavy: B8 heavy with L236Y, Y254M, K328A, Y436N, K441E
light: DIQMTQSPSSLSASVGDRVTITCRASQDISSYLNWYQQKPGKAPKLLIYYTSRLHSGVPSRFSGSGSGTDFTFTISSLQPEDIATYYCQQGNTLPYTFGQGTKVEIK
notes: Alterations introduced into IL6R-B3 (EU numbering)
- KD(IIaH)/KD(IIb) [9]: 4.71

B12: IL6R-PD080/IL6R-L (antibody)
heavy: B8 heavy with G239D
light: B10 light
notes: Alteration is counted against IL6R-F11; also called G237D/P238D; P238D/G237D
- KD(IIaR)/KD(IIb) [11]: 10.7
- Kd [10]: 21000 nM
- Kd [12]: 2000 nM
- Kd [13]: 140 nM
- KD(IIb) of parent polypeptide/KD(IIb) of altered polypeptide [14]: 3.5
- KD(IIaH)/KD(IIb) [15]: 12.8

B14: GpH7-G1d/GpL16-k0 (antibody)
chain 1: not shown
chain 2: DIVMTQSPLSLPVTPGEPASISCQASESLVHSNRNTYLHWYLQKPGQSPQLLIYKVSNRFSGVPDRFSGSGSGTDFTLKISRVEAEDVGVYYCSQNTHVPPTFGQGTKVEIERTVAAPSVFIFPPSDEQLKSGTASVVCLLNNFYPREAKVQWKVDNALQSGNSQESVTEQDSKDSTYSLSSTLTLSKADYEKHKVYACEVTHQGLSSPVTKSFNRGEC
- relative binding activity (amount bound / amount bound by GpH7-G1d/GpL16-k0 x 100) [16]: 100
- relative binding activity (amount bound / amount bound by GpH7-G1d/GpL16-k0 x 100) [17]: 100
- relative binding activity (amount bound / amount bound by GpH7-G1d/GpL16-k0 x 100) [18]: 100
- relative binding activity (amount bound / amount bound by GpH7-G1d/GpL16-k0 x 100) [19]: 100
- relative binding activity (amount bound / amount bound by GpH7-G1d/GpL16-k0 x 100) [20]: 100

The remaining lines, values ahead:

- relative binding activity [1]: 1 % of GpH7-B3/GpL16-k0
- relative binding activity [2]: 3 % of GpH7-B3/GpL16-k0
B1: GpH7-B3 L328R/GpL16-k0 (antibody, human IgG1)
heavy: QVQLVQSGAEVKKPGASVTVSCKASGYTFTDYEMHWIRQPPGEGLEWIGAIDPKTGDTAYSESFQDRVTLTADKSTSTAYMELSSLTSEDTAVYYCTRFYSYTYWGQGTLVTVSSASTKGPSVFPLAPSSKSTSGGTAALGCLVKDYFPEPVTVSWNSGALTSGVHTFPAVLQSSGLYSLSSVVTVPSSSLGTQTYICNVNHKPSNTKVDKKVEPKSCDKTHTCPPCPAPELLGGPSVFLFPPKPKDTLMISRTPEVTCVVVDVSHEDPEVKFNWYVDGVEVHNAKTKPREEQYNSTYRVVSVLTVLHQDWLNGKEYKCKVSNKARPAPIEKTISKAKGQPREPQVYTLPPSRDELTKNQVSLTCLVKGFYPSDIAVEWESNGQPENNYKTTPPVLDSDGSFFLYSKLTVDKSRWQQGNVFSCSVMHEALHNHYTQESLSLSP
light: B3 light
notes: as for B3

- relative binding activity [3]: 1 % of GpH7-B3/GpL16-k0
B2: GpH7-B3 variant V266R/GpL16-k0 (antibody, human IgG1)
heavy: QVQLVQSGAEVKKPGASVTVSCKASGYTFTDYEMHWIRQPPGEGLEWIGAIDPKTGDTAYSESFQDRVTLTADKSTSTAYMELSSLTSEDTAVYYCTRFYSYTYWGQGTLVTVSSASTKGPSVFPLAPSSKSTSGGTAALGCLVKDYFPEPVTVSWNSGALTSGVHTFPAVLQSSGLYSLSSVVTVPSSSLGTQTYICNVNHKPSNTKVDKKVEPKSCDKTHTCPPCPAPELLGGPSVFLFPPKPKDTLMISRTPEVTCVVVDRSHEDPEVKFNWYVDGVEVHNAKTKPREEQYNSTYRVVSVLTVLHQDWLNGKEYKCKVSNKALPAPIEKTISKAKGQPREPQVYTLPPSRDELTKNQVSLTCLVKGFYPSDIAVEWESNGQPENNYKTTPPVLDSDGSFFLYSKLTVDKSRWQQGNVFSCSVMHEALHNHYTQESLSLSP
light: B3 light
notes: anti-glypican-3 IgG1; alteration introduced into GpH7-B3; copies: 2 + 2

- relative binding activity [5]: 9 % of GpH7-B3/GpL16-k0
B5: GpH7-B3 L234G/GpL16-k0 (antibody, human IgG1)
heavy: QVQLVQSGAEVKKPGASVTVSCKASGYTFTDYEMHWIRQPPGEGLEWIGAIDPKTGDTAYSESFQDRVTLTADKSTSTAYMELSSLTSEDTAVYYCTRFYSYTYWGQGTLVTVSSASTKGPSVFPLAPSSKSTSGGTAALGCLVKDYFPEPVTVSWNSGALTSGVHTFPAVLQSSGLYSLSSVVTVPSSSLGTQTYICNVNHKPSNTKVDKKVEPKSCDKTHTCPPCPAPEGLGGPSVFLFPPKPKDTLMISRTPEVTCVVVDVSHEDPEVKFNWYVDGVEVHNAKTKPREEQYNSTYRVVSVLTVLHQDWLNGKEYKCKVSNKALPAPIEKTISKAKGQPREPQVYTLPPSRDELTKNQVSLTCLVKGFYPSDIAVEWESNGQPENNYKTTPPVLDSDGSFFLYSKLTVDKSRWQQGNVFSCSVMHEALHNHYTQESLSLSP
light: B3 light
notes: as for B6

- relative binding activity [3]: 1 % of GpH7-B3/GpL16-k0
B7: GpH7-B3 variant V266K/GpL16-k0 (antibody, human IgG1)
heavy: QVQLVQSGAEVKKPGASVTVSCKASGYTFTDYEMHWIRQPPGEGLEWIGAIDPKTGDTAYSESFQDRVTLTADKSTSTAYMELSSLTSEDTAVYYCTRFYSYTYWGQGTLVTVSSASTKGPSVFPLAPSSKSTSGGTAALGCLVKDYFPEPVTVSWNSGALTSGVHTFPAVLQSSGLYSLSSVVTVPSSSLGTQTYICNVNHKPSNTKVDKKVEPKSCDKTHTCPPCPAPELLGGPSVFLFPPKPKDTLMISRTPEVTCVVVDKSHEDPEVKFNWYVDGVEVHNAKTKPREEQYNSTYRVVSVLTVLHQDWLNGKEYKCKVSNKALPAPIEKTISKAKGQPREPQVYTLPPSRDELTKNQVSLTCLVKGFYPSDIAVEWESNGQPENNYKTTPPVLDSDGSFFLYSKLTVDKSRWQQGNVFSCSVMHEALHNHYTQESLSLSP
light: B3 light
notes: as for B2

- Kd [10]: 1400 nM
B11: IL6R-PD082/IL6R-L (antibody, human IgG1)
heavy: B8 heavy with G239F
light: B10 light
notes: Alteration is counted against IL6R-F11; also called G237F/P238D; P238D/G237F

- KD(IIaH)/KD(IIb) [9]: 77.7
B13: IL6R-BP147/IL6R-L (antibody, human IgG1, name in EU numbering)
heavy: B8 heavy with L236Y, G239D, Y254M, K328A, A332K, Y436N, K441E
light: B10 light
notes: as for B10
